Our source for the EC50 values is US20230181714A1.

Experiment [1] addresses recombinant EEEV E1 glycoprotein (Eastern equine encephalitis virus). As to the kind of experiment: ELISA, binding reactivity (FIG. 1). A general note: In an ELISA, binding on a coated surface is turned into a signal by an enzyme label.
In experiment [2] the target is VEEV virus-like particles (VLPs) (Venezuelan equine encephalitis virus). Briefly: ELISA, binding reactivity (FIG. 1).

Bounds are passed on as bounds.

VEEV virus-like particles (VLPs) (Venezuelan equine encephalitis virus), sequence (P05674 335-757, chain 1 of 2): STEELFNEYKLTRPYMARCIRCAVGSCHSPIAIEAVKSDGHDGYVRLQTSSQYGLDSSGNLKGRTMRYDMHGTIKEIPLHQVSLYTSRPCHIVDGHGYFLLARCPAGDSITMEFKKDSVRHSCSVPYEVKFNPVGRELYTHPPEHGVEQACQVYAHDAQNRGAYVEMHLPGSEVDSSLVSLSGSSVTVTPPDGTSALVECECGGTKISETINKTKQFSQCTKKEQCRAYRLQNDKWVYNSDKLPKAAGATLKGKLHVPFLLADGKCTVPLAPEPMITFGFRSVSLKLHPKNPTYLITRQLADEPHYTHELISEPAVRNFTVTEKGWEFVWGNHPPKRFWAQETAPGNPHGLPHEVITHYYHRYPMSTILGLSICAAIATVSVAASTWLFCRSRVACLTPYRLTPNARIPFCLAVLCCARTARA
VEEV virus-like particles (VLPs) (Venezuelan equine encephalitis virus), sequence (P05674 813-1254, chain 2 of 2): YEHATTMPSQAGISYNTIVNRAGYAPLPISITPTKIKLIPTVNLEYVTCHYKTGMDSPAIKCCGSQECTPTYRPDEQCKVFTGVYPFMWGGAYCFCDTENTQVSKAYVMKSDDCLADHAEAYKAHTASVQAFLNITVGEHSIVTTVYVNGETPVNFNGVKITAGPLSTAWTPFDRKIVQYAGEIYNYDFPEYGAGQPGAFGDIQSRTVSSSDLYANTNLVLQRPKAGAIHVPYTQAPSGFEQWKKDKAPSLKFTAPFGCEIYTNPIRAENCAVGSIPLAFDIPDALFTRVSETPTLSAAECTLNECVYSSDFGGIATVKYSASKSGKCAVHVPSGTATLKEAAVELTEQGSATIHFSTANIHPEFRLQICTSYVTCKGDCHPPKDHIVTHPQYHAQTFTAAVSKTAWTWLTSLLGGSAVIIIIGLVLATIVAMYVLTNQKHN

B1: VEE-52B (antibody, V domains shown)
VH: QVHLLQSGAEVKKPGASVKVSCKSSGHTFASHGISWVRQAPGQGLEWMGWISVYNGNTNYAQKFQGRVIMTTDTPTSTAYMELRSLRSDDTAVYYCAKDIPSASYTMDVWGEGTTVTV
VL: QSALTQPRSVSGSPGQSVTISCTGTSSDIGRYDYVSWYHQHPGKAPKLMIYDVTKRPSGVPDRFSGSKSGNTASLTISGLHADDEADYYCCSYAGSFYVFGTGTKVTVL
For the molecule B1, the EC50 in experiment [1] and in experiment [2] was less than 0.02 µg/mL each time.

B2: VEE-81 (antibody, V domains shown)
VH: QVQLVQSGAEVKKPGASVKVSCKASGYTFTTYYIHWVRQAPGRGLEWMGIINSSGYNTYYAQKFQGRVTMTRDTSTSTVDMELSSLRSEDTAVYYCATSITTRAFDLWGQGTLVTVSS
VL: EIVLTQSPGTLSLSPGERVTLSCRASQSVSSIYLAWYQQRPGQAPRLLIYGASSRATGIPDRFSGSGSGTDFTLTIRRLEPEDFAVYYCQQYGSSPYTFGQGTKLEIK
For the molecule B2, the EC50 in experiment [1] and in experiment [2] was less than 0.02 µg/mL throughout.

As a reminder, the EC50 is the midpoint of the concentration-response curve.
